According to the NTF2 design screens of Basanta et al. (2020):

Assay: protease stability score; higher = more stable; yeast display proteolysis, trypsin and chymotrypsin;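 also: relative to predicted unfolded state with 0 unfolded-like and 1 meaning tenfold more protease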
“SEDEEMSHNIAKMWVDALMTGDEEVLHNLADPRVRLDINGVIVHGREEFTKTMEDKLRHMRIHHINIRDIDIQGDYVRVDVRSDIFVDGKRHHVTTTLIIFKVNGRWLLHEIVVR” showed a protease stability score of 1.95.
Work on “DEKEELTRKLLELLLLAWSTGDEEVLMMLADPDVRITQGDKITHGRDELRREIEEIWRKFGADHIEVEPEDSRVQGDKVNNRTTLWLRINGRTIDFNVHVIIVIVNGVIHSMRFEIR” yielded a protease stability score of 2.35.
With “TEMNDEARRAMKDFIEHLRTGDEDRLDKMLDPHVRMEINGRTFHGREDAIKWHREIRLEDITVKFSTIQGDKVRFFGEEDGIIDGQRHKTEVELIIRKVNGRWFIHEIQVH” the protease stability score was 1.27.
Sequence “SEEEDLWKEFLRRLVETSNTGNERILSELFDPRTRIIYNGVDYVGREWALFMFLRADHVHIRIKSVDVQGEKAHVDGRMIQFVGDKEERHEVQLIDVKIDGRWLIRMMTVR” has a protease stability score of 1.51.
“SEHDEMIHKIAKEIMEVLVTGNEEWLDKLVDPHMRLEFNGKDIHGREKLNELLRKFKNVKLEYHINSIEAWDGRTQVNGKVHIEYGDKSRIKDTRLHVLIWDGKIREMRVDHD” gave a protease stability score of 2.23.
“HEEEESFKNALEMWIRTVKTGDEKLESDLLDPDARLIFNGQEFHGRELVKKILIDWRKELRVRDFELRDFHIQGDKIYIDGTMFVEINGQTETRKIVIVFVKVNGRWLIHQVTFH” showed a protease stability score of 2.24.
Sequence “HEDEKVLKEMLRILAEVITTGNEEVMKRLADPHVRIDWNGRDIIGMEERYRKLREMGIEFEVRIHLRDTRSVGEKVEFITQLDVHIRVGDKTINFHQETRVDMEKVDGRWRVNEEKVV” has a protease stability score of 0.415.
“HEHEELLREYVERLLEIWRTGDEEKFMKNADPNVRIVYGDKDVHGREIWVEHFKRLFEELGFKYIDLRRVELINGVLHVHGNWNVNGRERKTELEFKIIDGRITSVQIRVH” gave a protease stability score of 1.27.
“DRHERKKVAKDFNEALETNDHEQLMEQMDPNARIKYGDKHYHGREDLRRFWKKLVDSVDHITVDKMQVRGEEVVVLAKAESNGRNETFRLVMEFHNGRIKFVRKDTP” gave a protease stability score of 1.05.
“DEEQKEALHFLENLVRSWITGDEETLKRLFDPHYRVHAENRELHGWEDVIHTAVRESEEIRLHHVKIEHLEFVDGQIFIHLNFDIDINGRREHVHTHVILLKINGRWILTKIEFH” showed a protease stability score of 1.38.
“DEDEHARKFVLDRLQHAWETGDEETMEKLMDPNAKLHVNGQDFHGRDTWHKLLHDELRDMGIKHFEFELKSFESQGNKLIIDGLEISEFNGREFRHRVTLIVDKFNGRWVVQSVEIR” showed a protease stability score of 1.29.
In the case of “DEDEHQSRHLAELIMRHIQTGDEEMIERLADPHARSNVNGVTDHGRNTMRWMKEFFKNLTLHIEDVRIVHIGNKVIVIIHLTVRFENREEHVIIIIISEKFDGRWWITEIEIRIK”, the protease stability score is reported as 0.505.
“SELDHLTKHAMELWLRLLETGDEHSEHRLADPNVRLDVNGKELHGMEEILEHLSRLGIKVFRVKDTELVGNKLHLIGELEFDGKRVETHVIAWKINGRWHLHRREIR” showed a protease stability score of 1.57.
“DEIHEKVQLAAEIFEEIVRTGDEELFMRYMDPHVRLIDENEIYHGMDIWHKWLHERHEKLGAKHEEVKTRSLDLQGEKLRVEGDFVVNVNGRTFHHRLHLIYRKIDGQWRYEQISLE” gave a protease stability score of 0.853.
In the case of “DEDERLYRIALEFLIEWHETGDEDEITRNVDPDARVDINGRNLVGREKVHRTLKELGINVLHIHRVHIVNGRLDVDGTVRFNGRTHRTRIIMLKVDGKWILDWLFIH”, the protease stability score is reported as 1.56.
In the case of “SEEEEFLEKLMREFVHDLLTGDEDRIRELADPHVKFEMDVNGVRFRAHGREEMLRELRRFWKEIRVKHIQTHDVKNVGDKAHSDVREVVEVDGREERHESEIIVVTINGRMQSVVLIFK”, the protease stability score is reported as 1.52.
“DEDTKLAQKMSKLLNHAIHTGDEKILRQLLDPHVRVHIGDKEHHGWKEYEKIMQEWRFEHVETEHVSLVNGRLHIDSHIVGNIDGRRTEVETHIIIKKFDGRWIDTEFHMK” gave a protease stability score of 0.583.
In the case of “SELEEEARKMNERFWRDMITGDFDSLVRLADPHVKVLYGDKFSIGREVFEEHLRHLGIKVSHLRNLDVQGDKVIVHGESKFNGKTFELEIIMRKFDGRWFIETVNLQ”, the protease stability score is reported as 0.973.
Work on “DEDEEYAREMYRLSVEALSTGDEDTLRHLFDPDVKVSWNGKENIGMEQSLKHWHHLRIEFRRIKIEQVHIQGNKVRLNLRVDGYIRVDGKEDRVHMKSHSVYVKINGKWTMHSIEFE” yielded a protease stability score of 1.79.
“HEDEVFFKLILHLLLEDYRTGDWESLEKFLDPSYKLVFDGKDIHGRERAVTIMRHEAHEMRIEDYHIRSLETQGDKLLLHGKFQGIVNGQRRESEIHLVILKVDGRWLWHSVQIN” gave a protease stability score of 1.01.
In the case of “DERHDDRNHAIEAFKFMLDTGDWRVYSRNIDPNMRLEIGDKTFHGREELEHHITQIDHHHTHTLTIEHIDRVGDFVDIHITLSVTVIFDGRNETKTFHVDIHLVKIDGKWLIHKESVK”, the protease stability score is reported as 0.545.
For “SEEEHVAKKLSDLILHAWRTGDEDQLSRLMDPHVRMIIGDKHLHGREEVSRWLHDWRRQVDHVEFHVKRFHVQGNKYTNDGHFVVHQGDKETRTDVEIILIVVDGKIHEIRIIIR”, the protease stability score was 2.17.
With “SEEEEEVVRIWKLLLELEKTGNEENIARLADPHVRTDINGQESHGREHLAKLVRHLFHEIRIKDFKIRRLELQGEKLIVDGELHGNYDGQHEVVDTEIHIYVVNGKLKSITVRHH” the protease stability score was 1.47.
Work on “DEDEENTRQAIDRIIRSWMTGDEKTMTELLDPRVRVEQGDKEFHGREDYTRWINEMRITHIDLRSIEKIDGRLHVHLEFDESVNGKRHRVDVELTIVKINGQWFLESVRIR” yielded a protease stability score of 0.681.
Sequence “DKEDEDMERIVKEFLHLHLTGDWKLMAELLDPDVRVEFDGKRYHGRENWSKLLEDEFRRIKNATIRIEIKHIDLQGDFARSEVVLHIIVNGVEHRHEMQIDMKVVNGRIHSIRIVRV” has a protease stability score of 1.47.
